# B1: LINE1-full (parent)
# chain: UACGUAGGUGGUUUUCCCCUGAUAGUGCUAAGGGGGCCUGGAAGUUUGGACUGGGCAGAGCUCAACACAGCGUGGCAAAGUGGCUGUGGCUAGACUGCCUCUCUGGAUUCCUCGUCACUCAGCAGGGCAUCUCUGAGAGAAAUGCC
# Variants of: B1
# Assay: self-cleavage, relative activity (ratio to wild type); higher = more cleavage; in vitro, sequencing; the parent is a self-cleaving ribozyme
row,Variant,self-cleavage
1,UACGUAGGUGGUUUUCCCCUGAUAGUGCUAAGGGGGCCUGGAAGCUUGGACUGGGCAGAGCUCAACACAGCGUGGCAAAGUGGCUGUGGCUAGACUGCCUCUCUGGAUUCCUCGUCACACAGCAGGGCAUCUCUGAGAGAAAUGCC [U45C U119A],1.3
2,UACGUAGGUGGUUUUCCCCUGAUAGUGCUAAGGGGGCCUGGAAGCUUGGACUGGGCAGAGCUCAACACAGCGUGGCAAAGUGGCUGUGGCUAGACUGCCUCUCUGGAUUCCUCGUCACCCAGCAGGGCAUCUCUGAGAGAAAUGCC [U45C U119C],2.12
3,UACGUAGGUGGUUUUCCCCUGAUAGUGCUAAGGGGGCCUGGAAGCUUGGACUGGGCAGAGCUCAACACAGCGUGGCAAAGUGGCUGUGGCUAGACUGCCUCUCUGGAUCCCUCGUCACUCAGCAGGGCAUCUCUGAGAGAAAUGCC [U45C U109C],0.61
4,UACGUAGGUGGUUUUCCCCUGAUAGUGCUAAGGGGGCCUGGAAGCUUGGACUGGGCAGAGCUCAACACAGCGUGGCAAAGUGGCUGUGGCGAGACUGCCUCUCUGGAUUCCUCGUCACUCAGCAGGGCAUCUCUGAGAGAAAUGCC [U45C U91G],0
5,UACGUAGGUGGUUUUCCCCUGAUAGUGCUAAGGGGGCCUGGAAGCUUGGACUGGGCAGAGCUCAACACAGCGUGGCAAAGUGGCUGUGGCCAGACUGCCUCUCUGGAUUCCUCGUCACUCAGCAGGGCAUCUCUGAGAGAAAUGCC [U45C U91C],0.69
6,UACGUAGGUGGUUUUCCCCUGAUAGUGCUAAGGGGGCCUGGAAGCUUGGACUGGGCAGAGCUCAACACAGCGUGGCAAAGUGGCUGUGGCAAGACUGCCUCUCUGGAUUCCUCGUCACUCAGCAGGGCAUCUCUGAGAGAAAUGCC [U45C U91A],0.55
7,UACGUAGGUGGUUUUCCCCUGAUAGUGCUAAGGGGGCCUGGAAGCUUGGACUGGGCAGAGCUCAACACAGCGUGGCAAAGUGGCUGUGGCUAGACUGCCUCUCUGGAUUCCCCGUCACUCAGCAGGGCAUCUCUGAGAGAAAUGCC [U45C U112C],1.27
8,UACGUAGGUGGUUUUCCCCUGAUAGUGCUAAGGGGGCCUGGAAGCUUGGACUGGGCAGAGCUCAACACAGCGUGGCAAAGUGGCUGUGGCUAGACUGCCUCUCUGGAUUCCUCGUCACUCAGCAGGGCAUCGCUGAGAGAAAUGCC [U45C U132G],1.33
9,UACGUAGGUGGUUUUCCCCUGAUAGUGCUAAGGGGGCCUGGAAGCUUGGACUGGGCAGAGCUCAACACAGCGUGGCAAAGUGGCUGUGGCUAGACUGCCUCUCUGGAUUCCUCGUCACUCAGCAGGGCAUCUCGGAGAGAAAUGCC [U45C U134G],1.22
10,UACGUAGGUGGUUUUCCCCUGAUAGUGCUAAGGGGGCCUGGAAGCUUGGACUGGGCAGAGCUCAACACAGCGUGGCAAAGUGGCUGUGGCUAGACUGCCUCUCUGGAUUCCUCGUCACUCAGCAGGGCAUCUCCGAGAGAAAUGCC [U45C U134C],1.47
11,UACGUAGGUGGUUUUCCCCUGAUAGUGCUAAGGGGGCCUGGAAGCUUGGACUGGGCAGAGCUCAACACAGCGUGGCAAAGUGGCUGUGGCUAGACUGCCUCUCUGGAUUCCUCGUCACUCAGCAGGGCAUCUCAGAGAGAAAUGCC [U45C U134A],1.6
12,UACGUAGGUGGUUUUCCCCUGAUAGUGCUAAGGGGGCCUGGAAGCUUGGACUGGGCAGAGCUCAACACAGCGUGGCAAAGUGGCUGAGGCUAGACUGCCUCUCUGGAUUCCUCGUCACUCAGCAGGGCAUCUCUGAGAGAAAUGCC [U45C U87A],0.09
13,UACGUAGGUGGUUUUCCCCUGAUAGUGCUAAGGGGGCCUGGAAGCUUGGACUGGGCAGAGCUCAACACAGCGUGGCAAAGUGGCUGCGGCUAGACUGCCUCUCUGGAUUCCUCGUCACUCAGCAGGGCAUCUCUGAGAGAAAUGCC [U45C U87C],0.23
14,UACGUAGGUGGUUUUCCCCUGAUAGUGCUAAGGGGGCCUGGAAGCUUGGACUGGGCAGAGCUCAACACAGCGUGGCAAAGUGGCUGUGGCUAGACUGCCUCUCUGGAUUCCUCGGCACUCAGCAGGGCAUCUCUGAGAGAAAUGCC [U45C U115G],2.1
15,UACGUAGGUGGUUUUCCCCUGAUAGUGCUAAGGGGGCCUGGAAGCUUGGACUGGGCAGAGCUCAACACAGCGUGGCAAAGUGGCUGUGGCUAGACUGCCUCUCUGGAUUCCUCGCCACUCAGCAGGGCAUCUCUGAGAGAAAUGCC [U45C U115C],2.14
16,UACGUAGGUGGUUUUCCCCUGAUAGUGCUAAGGGGGCCUGGAAGCUUGGACUGGGCAGAGCUCAACACAGCGUGGCAAAGUGGCUGUGGCUAGACUGCCUCUCUGGAUUCCUCGUCACUCAGCAGGGCACCUCUGAGAGAAAUGCC [U45C U130C],1.39
17,UACGUAGGUGGUUUUCCCCUGAUAGUGCUAAGGGGGCCUGGAAGCUUGGACUGGGCAGAGCUCAACACAGCGUGGCAAAGUGGCUGUGGCUAGACUGCCUCUCUGGAUUCCUCGUCACUCAGCAGGGCAGCUCUGAGAGAAAUGCC [U45C U130G],1.9
18,UACGUAGGUGGUUUUCCCCUGAUAGUGCUAAGGGGGCCUGGAAGCUUGGACUGGGCAGAGCUCAACACAGCGUGGCAAAGUGGCUGUGGCUAGACUGCCUCUCUGGAUUCCUCGUCACUCAGCAGGGCAACUCUGAGAGAAAUGCC [U45C U130A],1.66
19,UACGUAGGUGGUUUUCCCCUGAUAGUGCUAAGGGGGCCUGGAAGCUUGGACUGGGCAGAGCUCAACACAGCGUGGCAAAGUGGCUGUGGCUAGACCGCCUCUCUGGAUUCCUCGUCACUCAGCAGGGCAUCUCUGAGAGAAAUGCC [U45C U96C],0.12
20,UACGUAGGUGGUUUUCCCCUGAUAGUGCUAAGGGGGCCUGGAAGCUUGGACUGGGCAGAGCUCAACACAGCGUGGCAAAGUGGCUGUGGCUAGACUGCCUCUCAGGAUUCCUCGUCACUCAGCAGGGCAUCUCUGAGAGAAAUGCC [U45C U104A],1.43

# Source: the RNAGym collection of RNA variant scans (doi:10.7554/elife.90254)
